# Reference: patent US6645504B1, “Bystander suppression of type I diabetes by oral administration of glucagon” (AutoImmune Inc., priority 1987, dated 2003)
# B1: MBP: Guinea pig myelin basic protein purified from brain tissue (protein, UniProt P25188 1-167, looked up)
# Myelin basic protein: ASQKRPSQRHGSKYLATASTMDHARHGFLPRHRDTGILDSIGRFFGSDRAAPKRGSGKDSHHAARTTHYGSLPQKSQRSQDENPVVHFFKNIVTPRTPPPSQGKGRGLSLSRFSWGAEGQKPGFGYGGRADYKSKGFKGAHDAQGTLSKIFKLGGRDSRSGSPMARR
# Key:
# [1] = system: DTH responses to MBP; experiment: Delayed type hypersensitivity (DTH) testing, Example 1; assay type: in vivo, Lewis rats; settings: orally tolerized animals injected 5 times with 50 μl control serum; 48 hours after MBP challenge
# Method: Delayed Type Hypersensitivity (DTH) Testing. DTH was tested by injecting 25 μg of MBP in PBS subcutaneously in the ear. Thickness was measured before and 48 hours after challenge, by a blinded observer, using micrometer calipers (Mitutoyo, Japan). Change in ear thickness pre- and post-challenge was recorded for each animal and the result expressed as the mean for each experimental group ±SEM.
# Delayed-type hypersensitivity (DTH) responses correlate with the clinical course of EAE and serve as a measure of in vivo cellular immunity to MBP (Brod, S. A. et al. Ann. Neurol. 29:615-622, 1991; Khoury, S. J. et al. Cell. Immunol. 131:302-310, 1990). DTH responses were tested in the same groups described in FIG. 4 by injecting 25 μg of MBP in PBS subcutaneously in the ear. Thickness was measured before and 48 hours after challenge. The change in ear thickness pre- and post-challenge was recorded for each animal and the results expressed as the mean for each experimental group ± SEM.
# [2] = system: EAE; experiment: Adoptive transfer of disease suppression; assay type: in vivo, Lewis rats; settings: naive recipients immunized with MBP/CFA and given OVA subcutaneously; FIG. 9
# Method: Adoptive Transfer Of Disease Suppression. In order to monitor the adoptive transfer of disease suppression occurring during Bystander Suppression donor rats were fed either 1 mg MBP, OVA, or KLH, five times at 2 day intervals and killed 7-14 days after the final feeding. Spleen cells were harvested, and incubated in vitro with the homologous antigen (50 μg/ml) in proliferation medium, for 72 hours. Cells were injected intraperitoneally: 10^8 cells for whole spleen populations or 5-6×10^7 cells for CD8− or CD4-depleted populations. Recipient animals were irradiated (250 rad) before adoptive transfer, immunized with MBP/CFA 6 hours after adoptive transfer, and challenged 8 hours later with 50 μg OVA.
molecule,measurement,setting,value
B1,DTH response (change in ear thickness),[1],0.5±0.3
same,adoptive transfer of protection by spleen cells from fed animals,[2],adoptively transferred protection
